Data: the domain aggregation screens of Martell et al. (2025)

test: soluble fraction after stress (log2 fold change); higher = more stays soluble; pooled small domains, quantitative proteomics; settings: stress: 50 degC
Summary of the method: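 Each library was heated to 50°C as a stress step. The libraries, made up of small protein domains, were pooled and analysed at high throughput by quantitative proteomics. The reported value is the base-two logarithm of the fold change in each protein's soluble amount after stress, taken as a measure of aggregation propensity. The higher the value, the more protein stays in solution.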

Compared with “HMSGMNSDHRVNGNIHTFLIQHDLGTKWSVFTEQLLKQVFRSFLPDKELNFQTTDSTVILKVSLGSDFNEH”, “HMVGGIAIGQFNVPRGSVKVTAGGRLLQEGLDYTVNYQAGRVQILDESLKNSNVPIEISTESNS” is higher in “soluble fraction (log2)” value: -0.0505 for the first, 0.229 for the second.

Compared with “HMHHDDHNQQEEIKEKLLAMVADGERHHVTEVRQLDEDWDMVTKVMKELMDEEQLLMDGSYLILSA”, “HMSKLQKTKYAGVYFTEDTQTRVKTYVARIVLAGIIDTEVVVGHSNDQHRTNAAIAYQRRLELIQEAKN” is lower in “soluble fraction (log2)” value: -0.0951 for the first, -3.86 for the second.

Compared with “HMGPESKLTDAIKDYIYALYENLKGKSKFRNTIIEEVKKLYGVDISRESIRRVVNQKTDAETTENDDDEKA”, “HMAAPPPLSDYRNMQEAEHIRNILLQHHGNVRRAAAALELSRPYLYQKMKQLGINIAELRELSLSHSS” is lower in “soluble fraction (log2)” value: no less than 0.62 for the first, -0.559 for the second.

Going from “HMELPVAVPHTELSPEALRGVVESFVLREGTDYGERDVPFEAKVAQVIRQLERGEARIMFDPVTQSVQIVT” to “HMLSLTSRQQEIFDLIKGHIKKTGMPPTRSEIALHFGFRSANSAEEHLRALARKGFIELIPGTSRGIKLIE”, the “soluble fraction (log2)” value falls from 0.102 to -0.892.

Compared with “HMQYDALVLNLLQEKNLTSESLKDAQRAFAKSHNLSTLPSKSQILQAYFQLLEQGKIEKNPDFELLL”, “HMVFSNLGSRGEEVRQIQTKLKELGYLQGNVDGIYGNQTKQAVTAFQRDHGLSADGIAGEKTLAALGIG” is higher in “soluble fraction (log2)” value: -0.108 for the first, 0.315 for the second.

Going from “HMRQLISIYNNTIGADEIDQMRNILSNSGYKEGVDFAVQTADKKSVILVRRDLAGMIQEQLSGEGLPS” to “HMFPNLTNEEQQVMKVLAKTNDLQINMLSVQSNLPIARLTALLFSMEMKGVVKTLAGGVYHLL”, the “soluble fraction (log2)” value falls from 0.0201 to -3.23.

Going from “HMTNYGTVRPGARGQAVTALQQALIRHGYKLTADGIYGRATRQAVRAFQQKHKLKVDGIVGSKTWALLLAD” to “HMGDLDLVTFGQRLRHLRRSRNMTLSELGERVGRAPSQLSLLENGKREPKLSLLTALAKALDVSVEEL”, the “soluble fraction (log2)” value rises from -1.04 to -0.75.

Compared with “HMRMLSEGAQRMLRGLAVLEEASADRLLELHQGDYPGFVRSLFALESAGLFQRNGSGTWIRR”, “HMQPLGHDLTERELDVLALMVTGMNNSEIADKLVVSRSTIKYHVSNILSKLQATSRTEAVAYALQQNLVH” is higher in “soluble fraction (log2)” value: -0.819 for the first, -0.469 for the second.

First: HMDFSENEPVTVRVLSILKNNTIRIAVKGAVLQAQTALSQDIREGAFLLMRVHITDNTVVLTPY
Second: HMQYYITKIANYDQVSPNLLVRTAEGQYMVKTNADILDTDVTKLTEEEIRKDWGYLFENGFSELV
The “soluble fraction (log2)” value of the first is higher: 0.0533 for the first, -0.814 for the second.

Compared with “HMSQDEVVADMKADLGPDADNIIRSNIQWADGLVRKGILTESEREELDVMGGTPEAQRILVKLRTMQG”, “HMVYNQYILTQSVRLREEPGISGRVIRLLETGTTVELVDTVVVNKDDYDWVWVKLSDGAVGWIIKSAIDI” is lower in “soluble fraction (log2)” value: 0.0777 for the first, -0.529 for the second.

“HMQRDELRYDQFLTALQNKEFTQLNVRFDDYTYLVTGTFQSGRPFSTRGPVSEEFIRLIESSGVQVTWLPM” and “HMYLEARVKSTTPILSKPNELGKSLGKLYTNDFVALVSLHKNGLDSYYRTANGGYINAADVVIDRDV” are within 0.2 log units of each other in “soluble fraction (log2)” value: -0.577 for the first, -0.663 for the second.

Compared with “HMSALTDQQQRVLELVASGLVYKEVAAALSISEPTVKYHMGNILTRLHVKNRAQAIAAARQQGLL”, “HMEVMYFIYQQEEPMRIDKFLVNEMEDFSRNSIQIYIKDNHVLVNDKVVKANYILKKGDAISITIPDPI” is higher in “soluble fraction (log2)” value: -1.21 for the first, -0.404 for the second.

“HMEDNLMIVVQVNGKKRSEIKVSIDASEDQIKQTALAEPNVQKFVEGHTIRKMILVPSKLLNIVV” and “HMRGAARRDRAVGERAVSKDTILDATRALLRKGSALEIRAIDIAEESGLSRQTVFQYYPVIRLIFFELSD” are within 0.2 log units of each other in “soluble fraction (log2)” value: -0.0375 for the first, 0.138 for the second.

Compared with “HMIMMTLGEKIRSIRKAKGMTQQELAEKLNTTKQTIGKYEKGIVTNLPLFRINELARALSTTPAYLTGW”, “HMALDLPVKRVKGKEYYYYKVKKGESLYGISKHLGLPLDSIVKSNPSVADGVRKGDMLLFPLEEYT” is higher in “soluble fraction (log2)” value: -1.41 for the first, -0.307 for the second.

Going from “HMPQQVFKREDLQKWGLTGQADSRKRREKLGQLLGIGYGNGKQLIHRLNMFQVDRATFEQAIKQINQEEDH” to “HMRSPIWKSITATLTAEIAGGQYRAGDKLPTEAELSQRFGVNRHTLRRALAEMAGAGLVVARRGAGVFVQG”, the “soluble fraction (log2)” value falls from -0.423 to -1.94.

“HMEVPVQYIKFKIPENHFWAKKKVADIILPPETLLVLLQRGSDKMIPDGETVLLPEDTLVLIAKAPG” and “HMNEDTEDIKNINSLVNKLTENNFDIIRDSIVKLINKEHLIPYIIETIIEKSILHHRYVHLYVSILKE” are within 0.2 log units of each other in “soluble fraction (log2)” value: -0.0836 for the first, 0.0794 for the second.

Compared with “HMKDEHYLYIKARVDNGDYPHLSELKSAEEIELVMPKLLQDGIVEFNKETGEYTIGEDVKAEIERL”, “HMQKYSTIIGVIELRQSGIGYRTTKKRYNIGNSTVTLIMNRFHELGLSLEELKAMPPKKVEEAFYPPE” is lower in “soluble fraction (log2)” value: 0.108 for the first, -2.43 for the second.

Compared with “HMNLDMVINKIGIVTEDIKQDKIGEVKVLGKRWSAYSNTELKKDEKVKILSIDGVKLKVEKI”, “HMGRTVKGVNFVGLRDAGDPVDLAEIYSKEGADELVFLDITATHEKRKTLLDLVTRVAERINIPFTVGGGI” is lower in “soluble fraction (log2)” value: 0.191 for the first, -0.015 for the second.

In the case of “HMRDVVVVPDLSGLTQMEALSKLDAESLNIGEINYGVSEMPEGVIFKQDPVYGTELMKGDTVDIFISGR”, the “soluble fraction (log2)” value was -0.527.
